Tests used:
[1] = molecular target: T1, MBP-MrkH-PilZ domain (Klebsiella pneumoniae) (UniProt G3FT00); assay: EMSA; settings: EMSA: 50 mM Tris pH 8.0, 100 mM NaCl, 5 mM MgCl2, 20 ul, 100 min on ice; FP: 10 nM FAM-DNA, 25 C, buffer not fully given. Fig. 2G Kd values (High, 10.3, High …)
T1 sequence: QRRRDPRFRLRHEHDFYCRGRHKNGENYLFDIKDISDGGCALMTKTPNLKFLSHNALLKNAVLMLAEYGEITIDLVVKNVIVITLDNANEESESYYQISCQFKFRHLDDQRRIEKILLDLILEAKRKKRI

[2] = molecular target: T2, MBP-MrkH (Klebsiella pneumoniae) (UniProt G3FT00); assay: EMSA; settings: EMSA: 50 mM Tris pH 8.0, 100 mM NaCl, 5 mM MgCl2, 20 ul, 100 min on ice; FP: 10 nM FAM-DNA, 25 C, buffer not fully given. Fig. 2G Kd values (High, 10.3, High …)
T2 sequence: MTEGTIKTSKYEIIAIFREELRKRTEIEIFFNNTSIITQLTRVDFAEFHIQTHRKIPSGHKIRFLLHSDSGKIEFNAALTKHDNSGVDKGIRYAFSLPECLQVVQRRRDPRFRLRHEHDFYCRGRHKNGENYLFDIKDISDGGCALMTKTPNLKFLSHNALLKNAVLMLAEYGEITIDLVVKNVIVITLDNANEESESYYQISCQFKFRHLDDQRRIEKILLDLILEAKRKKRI

[3] = molecular target: T3, MrkH (Klebsiella pneumoniae, UniProt G3FT00); assay: ITC; type: binding
T3 construct: full-length MrkH, YcgR-N plus PilZ domains; monomer; recombinant

[4] = molecular target: T4, MrkH^105-end (Klebsiella pneumoniae, UniProt G3FT00); assay: ITC; type: binding
T4 construct: PilZ domain with interdomain linker, residues 105-end
From the text: ITC on MrkH^105-end | MrkH^105-end also binds to c-di-GMP efficiently

[5] = molecular target: T5, MrkH (tag removed) (Klebsiella pneumoniae) (UniProt G3FT00); assay: fluorescence polarization; settings: EMSA: 50 mM Tris pH 8.0, 100 mM NaCl, 5 mM MgCl2, 20 ul, 100 min on ice; FP: 10 nM FAM-DNA, 25 C, buffer not fully given. Fig. 2G Kd values (High, 10.3, High …)
T5 sequence: T2 sequence

[6] = molecular target: T6, MrkH (tag removed) (Klebsiella pneumoniae, UniProt G3FT00 1-234); assay: fluorescence polarization; no c-di-GMP; EMSA: 50 mM Tris pH 8.0, 100 mM NaCl, 5 mM MgCl2, 20 ul, 100 min on ice; FP: 10 nM FAM-DNA, 25 C, buffer not fully given. Fig. 2G Kd values (High, 10.3, High, 7.5, 24.3, 10.6, 12.7, High) cannot be assigned to mutants. PilZ mutants of Fig. S3B (all lose mrkA binding in EMSA) are not individually named in the material; settings: protein: recombinant; tags: none (tag removed for FP); label: 5'-FAM; blunt
[7] = molecular target: MrkH K207A (Klebsiella pneumoniae, UniProt G3FT00 1-234, K207A); assay: fluorescence polarization; little effect of mutation; EMSA: 50 mM Tris pH 8.0, 100 mM NaCl, 5 mM MgCl2, 20 ul, 100 min on ice; FP: 10 nM FAM-DNA, 25 C, buffer not fully given. Fig. 2G Kd values (High, 10.3, High, 7.5, 24.3, 10.6, 12.7, High) cannot be assigned to mutants. PilZ mutants of Fig. S3B (all lose mrkA binding in EMSA) are not individually named in the material; settings: protein: recombinant; tags: none; label: 5'-FAM; blunt
[8] = molecular target: MrkH K89A (Klebsiella pneumoniae, UniProt G3FT00 1-234, K89A); assay: as above; settings: protein: recombinant; tags: none; label: 5'-FAM; blunt
[9] = molecular target: MrkH K163A (Klebsiella pneumoniae, UniProt G3FT00 1-234, K163A); assay: as above; settings: protein: recombinant; tags: none; label: 5'-FAM; blunt
[10] = molecular target: MrkH K154A (Klebsiella pneumoniae, UniProt G3FT00 1-234, K154A); assay: as above; settings: protein: recombinant; tags: none; label: 5'-FAM; blunt
[11] = molecular target: T6, MrkH (tag removed); assay: fluorescence polarization; EMSA: 50 mM Tris pH 8.0, 100 mM NaCl, 5 mM MgCl2, 20 ul, 100 min on ice; FP: 10 nM FAM-DNA, 25 C, buffer not fully given. Fig. 2G Kd values (High, 10.3, High, 7.5, 24.3, 10.6, 12.7, High) cannot be assigned to mutants. PilZ mutants of Fig. S3B (all lose mrkA binding in EMSA) are not individually named in the material; settings: protein: recombinant; tags: none (tag removed for FP); label: 5'-FAM; blunt

## ACTTAAGTTTTTATCCTTCGACCGGTCTCCAGCTTGGAGGCCGTTGTCGTTTTTGTCATGACCAAAATTCGAAACTCTTGATTACAGGAAATACAATATCAAATTCCAAGTTTATACATATCAATCTGGCTGCAAAGATAGTCAATAACATCAAACGCTCATAAAAACATCTGATTAACCCAATCAGAATGTTGCTATTGCTATAAGAAAAATCAAACGCCTCACGACAACTATTTACAAGGGATGCAT (double strand) [mrkHI promoter 250 bp]
[1]
  binding: binds
[2]
  binding: binds

## Nc1nc2c(ncn2[C@@H]2O[C@@H]3CO[P@](=O)(O)O[C@H]4[C@@H](O)[C@H](n5cnc6c(=O)[nH]c(N)nc65)O[C@@H]4CO[P@](=O)(O)O[C@H]3[C@H]2O)c(=O)[nH]1 [c-di-GMP]
[3]
  Kd: ~0.24 µM
[4]
  Kd: 0.45 ± 0.1 µM

## GCTGCGCTGTAAACAACCACCCTCGCGTTTTCATCTATCAATGGCTGTTTATTAATAGTCGATGGTTATCTGTTATATAACTTAATGAAACGTGAACAAATGTATATTTGTCGGCGAATAAATAGCATTCTTTGACGCCGATAGCACCAGCGAACTTATATTTTTAGGTTCGTTACCTGACGCCTTAAATATTGCGGCTCCCGGTCAGTCGAAGATTCTATTAGCAGTGGCATAAATCAGCATCGCCTGATGTTTCTGGTTCTATGCGAATTCACAGTGTGCT (double strand) [PmrkA -117 to +166 (FAM)]
[5]
  Kd: 3.07 µM

B1: PmrkA -117 to -37 (FAM) (dsDNA)
DNA 1: GCTGCGCTGTAAACAACCACCCTCGCGTTTTCATCTATCAATGGCTGTTTATTAATAGTCGATGGTTATCTGTTATATAA
DNA 2: TTATATAACAGATAACCATCGACTATTAATAAACAGCCATTGATAGATGAAAACGCGAGGGTGGTTGTTTACAGCGCAGC
[6]
  Kd: 8.24 ± 2.23 µM
[7]
  binding result: binds
[8]
  binding result: binds
[9]
  binding result: binds
[10]
  binding result: binds

B2: 80 bp random sequence (FAM) (dsDNA)
DNA 1: ATAAATAGCATTCTTTGACGCCGATAGCACCAGCGAACTTATATTTTTAGGTTCGTTACCTGACGCCTTAAATATTGCGG
DNA 2: CCGCAATATTTAAGGCGTCAGGTAACGAACCTAAAAATATAAGTTCGCTGGTGCTATCGGCGTCAAAGAATGCTATTTAT
[11]
  Kd: 7.45 ± 2.81 µM

From PMC5055493, “The PilZ domain of MrkH represents a novel DNA binding motif” (Protein & Cell, 2016)
